{
  "source": "paper PMC6954389",
  "about": "(Nucleic Acids Research, 2019)",
  "binders": {"B1": {"name": "tagless wildtype WhiB1, purified (from His6-SUMO-WhiB1) (natural protein)", "chain": "MDWRHKAVCRDEDPELFFPVGNSGPALAQIADAKLVCNRCPVTTECLSWALNTGQDSGVWGGMSEDERRALKRRNARTKARTGV"}},
  "biological_target": "T1, His6-σ^A_(C170), C-terminal residues 359–528 of σ^A, wildtype (M. tuberculosis, UniProt P9WGI1 359-528)",
  "T1 sequence": "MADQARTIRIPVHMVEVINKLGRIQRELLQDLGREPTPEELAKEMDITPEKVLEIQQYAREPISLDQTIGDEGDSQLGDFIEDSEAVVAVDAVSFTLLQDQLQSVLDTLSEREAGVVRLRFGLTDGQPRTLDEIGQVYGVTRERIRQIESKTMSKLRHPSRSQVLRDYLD",
  "test": "pull-down",
  "data": [
    {"binder": "B1", "values": [
      {"measurement": "binding result", "value": "binds"}
    ]}
  ]
}
